Experimental data taken from US20220313738A1.
Changes are numbered by the printed parent chain.

B1: wildtype SIV Nef, Q02840 1-223 (protein)
chain: MGSSNSKRQQQGLLKLWRGLRGKPGADWVLLSDPLIGQSSTVQEECGKALKKSWGKGKMTPDGRRLQEGDTFDEWDDDEEEVGFPVQPRVPLRQMTYKLAVDFSHFLKSKGGLDGIYYSERREKILNLYALNEWGIIDDWQAYSPGPGIRYPRVFGFCFKLVPVDLHEEARNCERHCLMHPAQMGEDPDGIDHGEVLVWKFDPKLAVEYRPDMFKDMHEHAKR
B2: SIV Nef M116, Q02840 1-223 (protein)
chain: B1 chain with L178A, M179A

Target: Jurkat-M663, Jurkat-M665 and Jurkat-M666 (ISD-modified BCMA CARs M663, M665, M666)
Experiment: cell-based or functional assay

Binder | relative ISD-modified CAR positive rate (FACS), days 6, 7 and 8
B1 | 41.2 to 69.8%
B2 | 44.6 to 64.9%
